Measured values as given in publication PMC3458707 (Chemistry & biology, 2012).
Where two headings read alike, the source gives them in different places.

How the values were obtained:
Assay in all cases: native MS
[1] = target: T1, Recombinant firefly luciferase (firefly, UniProt P08659 1-550 = luciferase)
[2] = target: T2, pig heart citrate synthase (pig, UniProt P00889 28-464)
T2 sequence (looked up): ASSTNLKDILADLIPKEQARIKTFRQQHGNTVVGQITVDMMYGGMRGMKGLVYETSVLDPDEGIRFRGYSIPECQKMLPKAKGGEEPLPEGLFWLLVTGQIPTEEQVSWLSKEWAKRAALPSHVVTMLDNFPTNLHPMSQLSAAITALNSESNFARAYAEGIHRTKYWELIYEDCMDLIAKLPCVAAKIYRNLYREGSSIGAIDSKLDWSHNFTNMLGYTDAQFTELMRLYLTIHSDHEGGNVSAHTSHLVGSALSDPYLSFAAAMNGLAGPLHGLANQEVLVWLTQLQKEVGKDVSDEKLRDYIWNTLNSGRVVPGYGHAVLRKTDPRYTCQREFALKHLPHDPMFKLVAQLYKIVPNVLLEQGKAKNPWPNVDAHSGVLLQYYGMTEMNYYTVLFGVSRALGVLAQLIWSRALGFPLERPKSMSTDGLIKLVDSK

[3] = target: T3, mitochondrial pig heart malate dehydrogenase (pig, UniProt P00346 25-338)
T3 sequence (looked up): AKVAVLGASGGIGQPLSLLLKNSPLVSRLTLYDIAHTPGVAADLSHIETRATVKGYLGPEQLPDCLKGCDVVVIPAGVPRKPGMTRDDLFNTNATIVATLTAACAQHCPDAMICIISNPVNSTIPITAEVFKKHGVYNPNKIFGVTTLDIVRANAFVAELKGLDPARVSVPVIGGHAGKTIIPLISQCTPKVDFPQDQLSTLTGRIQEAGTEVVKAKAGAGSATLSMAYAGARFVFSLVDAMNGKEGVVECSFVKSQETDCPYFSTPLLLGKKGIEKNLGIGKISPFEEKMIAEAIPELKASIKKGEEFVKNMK

[4] = target: T1, Recombinant firefly luciferase; remark: listed apart in the source
[5] = target: T1, Recombinant firefly luciferase; remark: listed apart in the source
[6] = target: T2, pig heart citrate synthase; remark: listed apart in the source
[7] = target: T3, mitochondrial pig heart malate …; remark: listed apart in the source

T1 sequence (P08659 whole entry): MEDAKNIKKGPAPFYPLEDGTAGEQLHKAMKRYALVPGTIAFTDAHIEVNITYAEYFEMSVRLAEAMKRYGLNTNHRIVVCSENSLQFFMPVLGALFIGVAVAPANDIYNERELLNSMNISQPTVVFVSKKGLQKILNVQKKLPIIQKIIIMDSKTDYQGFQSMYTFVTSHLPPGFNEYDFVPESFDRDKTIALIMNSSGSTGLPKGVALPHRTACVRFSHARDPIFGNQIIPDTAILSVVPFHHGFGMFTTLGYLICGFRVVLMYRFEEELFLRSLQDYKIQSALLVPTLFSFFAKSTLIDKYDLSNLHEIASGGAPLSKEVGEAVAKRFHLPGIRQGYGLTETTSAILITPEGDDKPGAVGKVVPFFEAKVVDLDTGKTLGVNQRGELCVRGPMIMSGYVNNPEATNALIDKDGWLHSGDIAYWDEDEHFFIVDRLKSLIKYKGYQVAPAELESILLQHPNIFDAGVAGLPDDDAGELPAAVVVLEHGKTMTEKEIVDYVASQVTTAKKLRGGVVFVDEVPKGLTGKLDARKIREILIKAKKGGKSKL

ratio of complexes [Target]1:[Target]2 [1]: 1.1 [Target]2 per [Target]1
ratio of complexes [Target]1:[Target]2 [2]: 2.9 [Target]2 per [Target]1
ratio of complexes [Target]1:[Target]2 [3]: 1.6 [Target]2 per [Target]1
stoichiometry N [4]: 19.4 ± 0.4 subunits of HSP18.1 per Luc
ratio of complexes [Target]1:[Target]2 [5]: 2.2 [Target]1 per [Target]2
ratio of complexes [Target]1:[Target]2 [6]: 2 [Target]2 per [Target]1
ratio of complexes [Target]1:[Target]2 [7]: 1.9 [Target]2 per [Target]1
B1: HSP18.1 from Pisum sativum (pea) (natural protein, UniProt P19243 1-158, looked up)
chain: MSLIPSFFSGRRSNVFDPFSLDVWDPLKDFPFSNSSPSASFPRENPAFVSTRVDWKETPEAHVFKADLPGLKKEEVKVEVEDDRVLQISGERSVEKEDKNDEWHRVERSSGKFLRRFRLPENAKMDKVKASMENGVLTVTVPKEEIKKAEVKSIEISG
